The target of the data set is Insulin (UniProt P01308+P01308). Nature of the data set: flow. Particulars: dT replaced by C8-alkyne-dU clicked with phenylalanine azide (positions incorporated by polymerase); bead-based assay, buffer.

As a reminder, the Kd is the concentration at which binding is half-saturated. Low readings indicate a tighter complex, high ones a looser complex.

Sequence of Insulin (P01308 25-54, chain 1 of 2): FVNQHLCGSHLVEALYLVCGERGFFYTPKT
Sequence of Insulin (P01308 90-110, chain 2 of 2): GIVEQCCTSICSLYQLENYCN

In the case of “GCGCATACCAGCTTATTCAATCGTCGAGAACTCCTCCGGCTCTAACTCCGATTATAGCCAAAGATAGTAAGTGCAATCTCGGC [Ins24]”, the Kd stood at 2560 nM. That is a single-digit micromolar value.

For the origin of these results see patent US20210324374.
